Blank lines part the entries; values can stand above or below the binder they belong to.
Target: CD40 on the surface of mature dendritic cells (mDC) (human) (UniProt P25942)
Assay: cell-based or functional assay

Sequence of CD40 on the surface of mature dendritic cells (mDC) (human) (P25942 21-277): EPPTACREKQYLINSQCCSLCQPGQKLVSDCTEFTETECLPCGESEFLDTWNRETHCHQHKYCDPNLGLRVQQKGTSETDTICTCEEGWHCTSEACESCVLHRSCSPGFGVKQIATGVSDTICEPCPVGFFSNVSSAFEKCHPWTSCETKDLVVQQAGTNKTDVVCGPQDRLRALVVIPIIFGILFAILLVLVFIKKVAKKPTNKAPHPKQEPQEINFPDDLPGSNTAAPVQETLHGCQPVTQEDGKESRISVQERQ

CD83+ (%) of mDC at 0.001 µg/mL Cifurtilimab: 83.4%
CD83+ (%) of mDC at 0.01 µg/mL Cifurtilimab: 84.6%
CD83+ (%) of mDC at 0.1 µg/mL Cifurtilimab: 93.3%
CD83+ (%) of mDC at 1 µg/mL Cifurtilimab: 94.1%
CD83+ (%) of mDC at 3 µg/mL Cifurtilimab: 95.7%
CD83+ (%) of mDC at 10 µg/mL Cifurtilimab: 95.7%
CD83+ (%) of mDC, agonist at 2 µg/mL (control group 81.00): 93.2%
CD83+ (%), Cifurtilimab together with Atezolizumab, batch 1 (control with Atezolizumab alone 92.69): 96.9%
CD83+ (%), Cifurtilimab together with Atezolizumab, batch 2 (control with Atezolizumab alone 64.27): 92.3%
CD83+ (%), Cifurtilimab together with Atezolizumab, batch 3 (control with Atezolizumab alone 89.18): 97.6%
CD83+ (%), Cifurtilimab together with Atezolizumab, batch 4 (control with Atezolizumab alone 75.24): 96.1%
IL-12p70 (pg/mL) at 0.001 µg/mL Cifurtilimab: 10.2 pg/mL
IL-12p70 (pg/mL) at 0.01 µg/mL Cifurtilimab: 10 pg/mL
IL-12p70 (pg/mL) at 0.1 µg/mL Cifurtilimab: 309 pg/mL
IL-12p70 (pg/mL) at 1 µg/mL Cifurtilimab: 312 pg/mL
IL-12p70 (pg/mL) at 3 µg/mL Cifurtilimab: 397 pg/mL
IL-12p70 (pg/mL) at 10 µg/mL Cifurtilimab: 402 pg/mL
IL-12p70 (pg/mL), Cifurtilimab together with Atezolizumab, batch 1 (control with Atezolizumab alone 4.1): 450 pg/mL
IL-12p70 (pg/mL), Cifurtilimab together with Atezolizumab, batch 2 (control with Atezolizumab alone 4.8): 1220 pg/mL
IL-12p70 (pg/mL), Cifurtilimab together with Atezolizumab, batch 3 (control with Atezolizumab alone 5.7): 1110 pg/mL
IL-12p70 (pg/mL), Cifurtilimab together with Atezolizumab, batch 4 (control with Atezolizumab alone 5.0): 454 pg/mL
IL-12p70 (pg/mL), agonist at 2 µg/mL (control group 50.0): 1490 pg/mL
functional and activity indices of mDC (CD83, IL-12, T cell activation) against antibody concentration: > 0.1 µg/mL
increase of IFN-γ secreting T cells over control, Cifurtilimab together with Atezolizumab: 21.8%
increase rate of CD83 positive ratio over control, Cifurtilimab together with Atezolizumab: 19.1%
mean CD83+ cells (%), Cifurtilimab together with Atezolizumab (control 80.35%): 95.7%
mean IL-12 secretion, Cifurtilimab together with Atezolizumab (control 4.9 pg/mL): 746 pg/mL
B1: Cifurtilimab (antibody, INN chains, looked up, V domains shown)
VH: EVQLVESGGGLVQPGGSLRLSCAASGYSFTGYYIHWVRQAPGKGLEWVARVIPNAGGTSYNQKFKGRFTLSVDNSKNTAYLQMNSLRAEDTAVYYCAREGIYWWGQGTLVTVSS
VL: DIQMTQSPSSLSASVGDRVTITCRSSQSLVHSNGNTFLHWYQQKPGKAPKLLIYTVSNRFSGVPSRFSGSGSGTDFTLTISSLQPEDFATYFCSQTTHVPWTFGQGTKVEIK

CD83+ (%) of mDC, agonist at 2 µg/mL (control group 81.00): 95.7%
IL-12p70 (pg/mL), agonist at 2 µg/mL (control group 50.0): 1470 pg/mL
B2: Mitazalimab (antibody, INN chains, looked up, V domains shown)
VH: EVQLLESGGGLVQPGGSLRLSCAASGFTFSTYGMHWVRQAPGKGLEWLSYISGGSSYIFYADSVRGRFTISRDNSENALYLQMNSLRAEDTAVYYCARILRGGSGMDLWGQGTLVTVSS
VL: QSVLTQPPSASGTPGQRVTISCTGSSSNIGAGYNVYWYQQLPGTAPKLLIYGNINRPSGVPDRFSGSKSGTSASLAISGLRSEDEADYYCAAWDKSISGLVFGGGTKLTVL
